The values below come from patent publication US20060067951A1 (GOVERNING COUNCIL OF THE UNIVERSITY OF TORONTO, published 2006).

T1: S. mutans ComD histidine kinase receptor (Streptococcus mutans)
T1 chain: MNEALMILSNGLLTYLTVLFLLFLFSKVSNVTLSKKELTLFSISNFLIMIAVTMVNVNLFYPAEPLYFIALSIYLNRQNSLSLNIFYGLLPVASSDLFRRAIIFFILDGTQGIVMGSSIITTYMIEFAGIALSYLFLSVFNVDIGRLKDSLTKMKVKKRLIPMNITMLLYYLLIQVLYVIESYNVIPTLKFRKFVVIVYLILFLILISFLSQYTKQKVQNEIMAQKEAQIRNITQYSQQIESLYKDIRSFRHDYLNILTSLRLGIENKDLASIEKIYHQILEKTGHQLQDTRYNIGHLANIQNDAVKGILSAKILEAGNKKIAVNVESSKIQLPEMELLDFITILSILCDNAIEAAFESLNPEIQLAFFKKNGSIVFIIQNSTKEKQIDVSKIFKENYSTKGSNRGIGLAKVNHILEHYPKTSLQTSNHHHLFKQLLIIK

B1: CSP peptide analog F1 (peptide)
peptide: SGSLSTFFRLFNRSFTQALK
B2: CSP peptide analog B3 (peptide)
peptide: SGTLSTFFRLFNRSFTQA
B3: CSP peptide analog B2 (peptide)
peptide: SGSLSTFFVLFNRSFTQALGK
B4: CSP peptide analog D1 (peptide)
peptide: SGSSTFFRLFNRSFTQALGK
B5: CSP peptide analog G2 (peptide)
peptide: SGSLSTFFRLFNRSFTQALGA
B6: CSP peptide analog H1 (peptide)
peptide: SGSLSTFFRLFNRSFTQLGK
B7: CSP peptide analog E2 (peptide)
peptide: SGSLSTFFRLFNASFTQALGK
B8: CSP peptide analog D2 (peptide)
peptide: SGSLSTFFRLFNVSFTQALGK
B9: CSP peptide analog E1 (peptide)
peptide: SGSLTFFRLFNRSFTQALGK
B10: CSP peptide analog A2 (peptide)
peptide: SGSLSTFFRLFNRSFTALGK
B11: CSP peptide analog C2 (peptide)
peptide: SGSLSTFFALFNRSFTQALGK
B12: CSP peptide analog F2 (peptide)
peptide: SGSLSTFFRLFNRSFTQALGV
B13: CSP peptide analog G1 (peptide)
peptide: SGSLSTFFRLFNRSFTQAGK
B14: mature wild-type S. mutans competence stimulating peptide (CSP) (peptide)
peptide: SGSLSTFFRLFNRSFTQALGK

In the test the target is T1, S. mutans ComD histidine kinase receptor. In words: cell-based or functional assay.
For the molecule B1, the “Transformation efficiency (vs 5 µg CSP), 5 µg/ml peptide, S. mutans wild-type UA159” value (shortened to “Transformation efficiency (vs 5 µg CSP)”) is 3 fold decrease and the “Transformation efficiency (vs no CSP), 5 µg/ml peptide, S. mutans wild-type UA159” value (shortened to “Transformation efficiency (vs no CSP)”) amounted to 541 fold increase.

On to B2, for which the “Transformation efficiency (vs 5 µg CSP)” value is 8 fold decrease and the “Transformation efficiency (vs no CSP)” value was 195 fold increase.

Take B3: the “Transformation efficiency (vs 5 µg CSP)” value came to 414 fold decrease and the “Transformation efficiency (vs no CSP)” value is 4 fold increase.

On to B4, for which the “Transformation efficiency (vs 5 µg CSP)” value stood at 6 fold decrease and the “Transformation efficiency (vs no CSP)” value is 275 fold increase.

B5: the “Transformation efficiency (vs 5 µg CSP)” value stood at 28 fold decrease and the “Transformation efficiency (vs no CSP)” value is 56 fold increase.

In the case of B6, the “Transformation efficiency (vs 5 µg CSP)” value was 28000 fold decrease and the “Transformation efficiency (vs no CSP)” value turned out to be 18 fold decrease.

Take B7: the “Transformation efficiency (vs 5 µg CSP)” value turned out to be 6 fold decrease and the “Transformation efficiency (vs no CSP)” value was determined as 252 fold increase.

In the case of B8, the “Transformation efficiency (vs 5 µg CSP)” value was 16 fold decrease and the “Transformation efficiency (vs no CSP)” value stood at 99 fold increase.

For the molecule B9, the “Transformation efficiency (vs 5 µg CSP)” value turned out to be 2 fold decrease and the “Transformation efficiency (vs no CSP)” value turned out to be 791 fold increase.

Take B10: the “Transformation efficiency (vs 5 µg CSP)” value amounted to 7 fold decrease and the “Transformation efficiency (vs no CSP)” value turned out to be 125 fold increase.

With B11, the “Transformation efficiency (vs 5 µg CSP)” value was 48 fold decrease and the “Transformation efficiency (vs no CSP)” value came out at 32 fold increase.

Turning to B12, the “Transformation efficiency (vs 5 µg CSP)” value came to 3 fold decrease and the “Transformation efficiency (vs no CSP)” value came out at 543 fold increase.

With B13, the “Transformation efficiency (vs 5 µg CSP)” value amounted to 2 fold decrease and the “Transformation efficiency (vs no CSP)” value amounted to 848 fold increase.

Regarding B14, the “Transformation efficiency (vs no CSP)” value stood at 1550 fold increase.
